Measurements reported in patent US20190202883A1 (Takeda / Millennium, published 2019).
Square brackets hold non-standard residues; d marks the D form. Side chains are listed from the residue outwards. Ends that are not written are not given here. Phe(2-F) = N[C@@H](Cc1ccccc1F)C(=O)O; NMeY = CN[C@@H](Cc1ccc(O)cc1)C(=O)O; αMeF = C[C@](N)(Cc1ccccc1)C(=O)O; Iva = CC[C@](C)(N)C(=O)O; Oda = not defined here; Aib = CC(C)(N)C(=O)O

T1: human GIPR (human, UniProt P48546 22-466)
T1 sequence (looked up): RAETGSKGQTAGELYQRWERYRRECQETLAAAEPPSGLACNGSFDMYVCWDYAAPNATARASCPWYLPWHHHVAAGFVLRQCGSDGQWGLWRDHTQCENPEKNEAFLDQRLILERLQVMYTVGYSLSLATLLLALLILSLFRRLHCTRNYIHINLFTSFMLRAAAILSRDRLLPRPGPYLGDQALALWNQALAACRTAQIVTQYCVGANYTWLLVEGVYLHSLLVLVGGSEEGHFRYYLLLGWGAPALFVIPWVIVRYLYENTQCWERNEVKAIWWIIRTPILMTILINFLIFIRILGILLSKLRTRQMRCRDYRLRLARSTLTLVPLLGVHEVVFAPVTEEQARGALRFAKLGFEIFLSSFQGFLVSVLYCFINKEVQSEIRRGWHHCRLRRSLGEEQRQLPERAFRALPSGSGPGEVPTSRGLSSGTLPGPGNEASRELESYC

T2: human NPY2R (human, UniProt P49146 1-381)
T2 sequence (looked up): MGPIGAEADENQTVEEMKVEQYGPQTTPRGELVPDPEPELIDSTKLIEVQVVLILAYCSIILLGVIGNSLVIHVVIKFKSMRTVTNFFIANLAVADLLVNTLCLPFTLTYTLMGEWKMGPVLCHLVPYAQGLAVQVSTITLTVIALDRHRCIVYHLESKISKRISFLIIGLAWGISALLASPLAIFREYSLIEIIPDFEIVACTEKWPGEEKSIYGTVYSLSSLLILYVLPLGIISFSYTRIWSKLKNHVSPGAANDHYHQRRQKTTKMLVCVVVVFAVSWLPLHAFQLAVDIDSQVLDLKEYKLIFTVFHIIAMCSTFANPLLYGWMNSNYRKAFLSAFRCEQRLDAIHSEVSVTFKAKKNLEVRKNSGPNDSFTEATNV


Assays:
Test in all cases: cell-based or functional assay
human GLP-1R = human GLP-1R (human, UniProt P43220 24-463)
human GIPR = molecular target: T1, human GIPR
human NPY2R = molecular target: T2, human NPY2R

Binder | Agonist activity (EC50), Cre-luc reporter assay (human GLP-1R) [nM] | Agonist activity (EC50), Cre-luc reporter assay (human GIPR) [nM] | Agonist activity (EC50), Cre-luc reporter assay (human NPY2R) [nM]
Me-Y[Aib]EGT[αMeF]TSDK([Gly-Gly-Gly-Gly-Oda])[Aib]I[Aib]LDKQRQ[Iva]EFVRHLLNK[Aib]TRQR[Phe(2-F)]-NH2 (reading uncertain; also: printed as Me-Tyr-Aib-Glu-Gly-Thr-αMePhe-Thr-Ser-Asp-Lys(-Gly-Gly-Gly-Gly-Oda)-Aib-Ile-Aib-Leu-Asp-Lys-Gln-Arg-Gln-Iva-Glu-Phe-Val-Arg-His-Leu-Leu-Asn-Lys-Aib-Thr-Arg-Gln-Arg-Phe(2-F)-NH2) | 1.5 | 0.29 | 1
H-Y[Aib]EGT[αMeF]TSDK([Gly-Gly-Gly-Gly-Pal])[Aib]I[Aib]LDKQRQ[Iva]EFVRHLLNK[Aib]TRQRY-NH2 | 0.082 | 0.068 | 0.1
H-Y[Aib]EGT[αMeF]TSDK([Gly-Gly-Gly-Gly-Pal])SI[Aib]LEKQRQ[Iva]EFVRHLLNK[Aib]TRQRY-NH2 | 0.053 | 0.041 | 0.041
H-Y[Aib]EGT[αMeF]TSDK([Gly-Gly-Gly-Gly-Pal])[Aib]I[Aib]LDKQAQ[Iva]EFVRHLLNK[Aib]TRQR[Phe(2-F)]-NH2 | 0.014 | 0.035 | 0.031
Me-Y[Aib]EGT[αMeF]TSDK([Gly-Gly-Gly-Gly-Oda])[Aib]I[Aib]LEKQRQ[Iva]EFVRHLLNK[Aib]TRQRY-NH2 (reading uncertain; also: printed as Me-Tyr-Aib-Glu-Gly-Thr-αMePhe-Thr-Ser-Asp-Lys(-Gly-Gly-Gly-Gly-Oda)-Aib-Ile-Aib-Leu-Glu-Lys-Gln-Arg-Gln-Iva-Glu-Phe-Val-Arg-His-Leu-Leu-Asn-Lys-Aib-Thr-Arg-Gln-Arg-Tyr-NH2) | 1.1 | 0.53 | 1.5
Me-Y[Aib]EGT[αMeF]TSDK([Gly-Gly-Gly-Gly-Pal])[Aib]I[Aib]LDKQRQ[Iva]EFVRHLLNK[Aib]TRQR[Phe(2-F)]-NH2 | 0.13 | 0.093 | 0.12
Me-Y[Aib]EGT[αMeF]TSDK([Gly-Gly-Gly-Gly-Pal])AI[Aib]LEKQRQ[Iva]EFVRHLLNK[Aib]TRQRY-NH2 | 0.036 | 0.04 | 0.026
Me-Y[Aib]EGT[αMeF]TSDK([Gly-Gly-Gly-Gly-Pal])[Aib]I[Aib]LDKQRQ[Iva]EFVRHLLNK[Aib]TRQRY-NH2 | 0.083 | 0.068 | 0.1
H-Y[Aib]EGT[αMeF]TSDK([Gly-Gly-Gly-Gly-Oda])SI[Aib]LEKQRQ[Iva]EFVRHLLNK[Aib]TRQRY-NH2 (reading uncertain; also: printed as H-Tyr-Aib-Glu-Gly-Thr-αMePhe-Thr-Ser-Asp-Lys(-Gly-Gly-Gly-Gly-Oda)-Ser-Ile-Aib-Leu-Glu-Lys-Gln-Arg-Gln-Iva-Glu-Phe-Val-Arg-His-Leu-Leu-Asn-Lys-Aib-Thr-Arg-Gln-Arg-Tyr-NH2) | 0.24 | 0.17 | 1.6
[NMeY][Aib]EGT[αMeF]TSDK([Gly-Gly-Gly-Gly-Oda])AI[Aib]LEKQRQ[Iva]EFVRHLLNK[Aib]TRQRY-NH2 (reading uncertain; also: printed as Me-Tyr-Aib-Glu-Gly-Thr-αMePhe-Thr-Ser-Asp-Lys(-Gly-Gly-Gly-Gly-Oda)-Ala-Ile-Aib-Leu-Glu-Lys-Gln-Arg-Gln-Iva-Glu-Phe-Val-Arg-His-Leu-Leu-Asn-Lys-Aib-Thr-Arg-Gln-Arg-Tyr-NH2) | 2.3 | 0.4 | 1.7
Me-Y[Aib]EGT[αMeF]TSDK([Gly-Gly-Gly-Gly-Pal])SI[Aib]LEKQRQ[Iva]EFVRHLLNK[Aib]TRQRY-NH2 | 0.048 | 0.052 | 0.049
Me-Y[Aib]EGT[αMeF]TSDK([Gly-Gly-Gly-Gly-Oda])SI[Aib]LEKQRQ[Iva]EFVRHLLNK[Aib]TRQRY-NH2 (reading uncertain; also: printed as Me-Tyr-Aib-Glu-Gly-Thr-αMePhe-Thr-Ser-Asp-Lys(-Gly-Gly-Gly-Gly-Oda)-Ser-Ile-Aib-Leu-Glu-Lys-Gln-Arg-Gln-Iva-Glu-Phe-Val-Arg-His-Leu-Leu-Asn-Lys-Aib-Thr-Arg-Gln-Arg-Tyr-NH2) | 1.3 | 0.25 | 2.6
H-Y[Aib]EGT[αMeF]TSDK([Gly-Gly-Gly-Gly-Oda])AI[Aib]LEKQRQ[Iva]EFVRHLLNK[Aib]TRQRY-NH2 (reading uncertain; also: printed as H-Tyr-Aib-Glu-Gly-Thr-αMePhe-Thr-Ser-Asp-Lys(-Gly-Gly-Gly-Gly-Oda)-Ala-Ile-Aib-Leu-Glu-Lys-Gln-Arg-Gln-Iva-Glu-Phe-Val-Arg-His-Leu-Leu-Asn-Lys-Aib-Thr-Arg-Gln-Arg-Tyr-NH2) | 0.53 | 0.36 | 1.1
H-Y[Aib]EGT[αMeF]TSDK([Gly-Gly-Gly-Gly-Oda])[Aib]I[Aib]LDKQRQ[Iva]EFVRHLLNK[Aib]TRQRY-NH2 (reading uncertain; also: printed as H-Tyr-Aib-Glu-Gly-Thr-αMePhe-Thr-Ser-Asp-Lys(-Gly-Gly-Gly-Gly-Oda)-Aib-Ile-Aib-Leu-Asp-Lys-Gln-Arg-Gln-Iva-Glu-Phe-Val-Arg-His-Leu-Leu-Asn-Lys-Aib-Thr-Arg-Gln-Arg-Tyr-NH2) | 0.32 | 0.22 | 2.1
H-Y[Aib]EGT[αMeF]TSDK([Gly-Gly-Gly-Gly-Oda])[Aib]I[Aib]LDKQRQ[Iva]EFVRHLLNK[Aib]TRQR[Phe(2-F)]-NH2 (reading uncertain; also: printed as H-Tyr-Aib-Glu-Gly-Thr-αMePhe-Thr-Ser-Asp-Lys(-Gly-Gly-Gly-Gly-Oda)-Aib-Ile-Aib-Leu-Asp-Lys-Gln-Arg-Gln-Iva-Glu-Phe-Val-Arg-His-Leu-Leu-Asn-Lys-Aib-Thr-Arg-Gln-Arg-Phe(2-F)-NH2) | 0.61 | 0.41 | 1.3
H-Y[Aib]EGT[αMeF]TSDK([Gly-Gly-Gly-Gly-Pal])AI[Aib]LEKQRQ[Iva]EFVRHLLNK[Aib]TRQRY-NH2 | 0.045 | 0.042 | 0.023
